Consider 23 molecules from patent US20100260805A1 (CIRCASSIA, published 2010).

Assay [1] has as its target T1, HLA-DRB1*1301 (human).
T1 construct: human MHC class II allotype
In words: competitive MHC class II binding assay; competitor: control peptide HLA-DQB1*0603 21-36.

Assay [2] addresses T2, HLA-DRB1*1501 (human).
T2 construct: human MHC class II allotype
Description: competitive MHC class II binding assay; competitor: control peptide Human myelin basic protein 85-99.

In assay [3] the target is T3, HLA-DRB1*1101 (human).
T3 construct: human MHC class II allotype
Description: competitive MHC class II binding assay; competitor: control peptide Influenza haemagglutinin 307-319.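 Note: each peptide was tested for its capacity to displace a known reference binder from human MHC class II allotypes, and its IC50 is expressed relative to that of the reference.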

The target of assay [4] is T2, HLA-DRB1*1501. In words: competitive MHC class II binding assay, high stringency screen; competitor: control peptide Myelin Basic Protein 85-99.
Assay [5] addresses T4, HLA-DRB1*0101 (human).
T4 construct: human MHC class II allotype
In words: competitive MHC class II binding assay; competitor: control peptide Influenza haemagglutinin 307-319.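 Note: each peptide was tested for its capacity to displace a known reference binder from human MHC class II allotypes, and its IC50 is expressed relative to that of the reference.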

The target of assay [6] is T5, HLA-DRB1*0401 (human).
T5 construct: human MHC class II allotype
The assay is described as above.

Assay [7] addresses T6, DQA1*0102/DQB1*0602 (human, UniProt P01920 33-230, limits assumed).
T6 construct: human MHC class II allotype
T6 MHC II alpha: not shown
T6 MHC II beta: not shown
Description: competitive MHC class II binding assay; competitor: control peptide Human Insulin B 1-15.

The target in assay [8] is T7, HLA-DRB1*0701 (human).
T7 construct: human MHC class II allotype
Description: competitive MHC class II binding assay; competitor: control peptide Influenza haemagglutinin 307-319.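 Note: each peptide was tested for its capacity to displace a known reference binder from human MHC class II allotypes, and its IC50 is expressed relative to that of the reference.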

The target of assay [9] is T8, HLA-DRB1*0301 (human).
T8 construct: human MHC class II allotype
Description: competitive MHC class II binding assay; competitor: control peptide Myco. tuberculosis/leprae hsp 65 2-16.

Assay [10] has as its target T9, DQA1*0102/DQB1*0602 (human), P01920.
T9 chain 1: not shown
T9 chain 2: not shown

Assay [11] concerns the target T10, HLA-DRB1*0701 (human).
T10 chain 1: not shown
T10 chain 2: not shown

Assay [12] concerns the target T11, HLA-DRB1*1101 (human).
T11 chain 1: not shown
T11 chain 2: not shown

Assay [13] has as its target T12, HLA-DRB1*1501 (human).
T12 chain 1: not shown
T12 chain 2: not shown

Assay [14] addresses T4, HLA-DRB1*0101. In words: competitive MHC class II binding assay.
Assay [15] addresses T8, HLA-DRB1*0301. Description: competitive MHC class II binding assay.
In assay [16] the target is T5, HLA-DRB1*0401. Description: competitive MHC class II binding assay.
The target in assay [17] is T7, HLA-DRB1*0701. In words: competitive MHC class II binding assay.
For assay [18], the target named is T3, HLA-DRB1*1101. In words: competitive MHC class II binding assay.
In assay [19] the target is T1, HLA-DRB1*1301. In words: competitive MHC class II binding assay.
Assay [20] concerns the target T2, HLA-DRB1*1501. Description: competitive MHC class II binding assay.
Assay [21] has as its target T6, DQA1*0102/DQB1*0602. In words: competitive MHC class II binding assay.

Read-outs that look alike come from different tables or passages of the source.

As for RNIQVRGLKQMKRVG [HDM34], the figures for the “ratio of IC50 to that of the control peptide” value (“ratio of IC50” below) in assay [1], in assay [2] and in assay [3] were 3.7 ratio, 769 ratio and 3.38 ratio, respectively.

B1: Fel d 1 peptide EQVAQYKALPVVLENA (peptide)
peptide: EQVAQYKALPVVLENA
notes: said to have been tested in an earlier study
B1: the “ratio of IC50” value in [4] is 0.97 ratio.
For RGKPFQLEAVFEANQNT [HDM21B], the “ratio of IC50” value in assay [5] came out at 13.5 ratio; in assay [6], 0.78 ratio; in assay [3], 4.1 ratio.
RTVTPIRMQGGCG [HDM02]: the “ratio of IC50” value came out at 0.03 ratio in [7] and 80 ratio in [2].
With EAVFEANQNTKTAK [HDM22A], the “ratio of IC50” value was determined as 329 ratio in [6] and 80 ratio in [3].
As for RNQSLDLAEQELVDCASQH [HDM03C], the “ratio of IC50” value in assay [7] came out at 0.16 ratio.
As to REALAQTHSAIAVI [HDM09A], the “ratio of IC50” value worked out at 200 ratio in assay [2], 0.49 ratio in assay [8] and 21.1 ratio in [3].
As to DGVLACAIATHAKIR [HDM26A], the “ratio of IC50” value turned out to be 0.61 ratio in assay [7], 42.3 ratio in assay [5] and 16.3 ratio in assay [8].
On to RYVAREQSCRRPN [HDM06], for which the “ratio of IC50” value in assay [7] was 0.86 ratio; in [3], 30.4 ratio.
As to KPFQLEAVFEANQNTK [HDM21A], the “ratio of IC50” value in [5] was found to be 200 ratio; in [6] it was 52.2 ratio; in [3], 10.3 ratio.
Regarding LDMRNIQVRGLKQ [HDM33], the results for the “ratio of IC50” value in assay [1], in [8] and in assay [3] were 263 ratio, 46.5 ratio and 41.5 ratio, respectively.
As for VSMEYDLAYKLGDLH [HDM40A], the “ratio of IC50” value came out at 2.29 ratio in [8] and 6 ratio in assay [3].
RGLKQMKRVGDAN [HDM35]: the “ratio of IC50” value in assay [3] was found to be 1.26 ratio.
Take DKFERHIGIIDLK [HDM30]: in [8], the “ratio of IC50” value was 6.2 ratio.
For the molecule TAIFQDTVRAEMTK [HDM48], the “ratio of IC50” value in [8] was 15.7 ratio; in assay [3], 13.6 ratio; in assay [9] it was 211 ratio.
As to DGLEVDVPGIDPNACH (purity 66.7%) [HDM23A], the “ratio of IC50” value in [7] was 0.76 ratio; in assay [9], 347 ratio.
As to CIIHRGKPFQLEA (modifications not checked) [HDM20], the ratio of IC50 to that of the control peptide stood at 2.37 in [10], 1.1 in assay [11], 28 in assay [12] and 242 in assay [13].
On to HDDVVSMEYDLAYKL [HDM39A], for which the “ratio of IC50” value in [7] turned out to be 0.1 ratio; in assay [6], 76.2 ratio; in assay [8], 0.71 ratio.
Regarding DTVRAEMTKVLAP [HDM49], the “ratio of IC50” value in assay [7] was 1.7 ratio; in assay [2], 671 ratio.
For the molecule VDFKGELAMRNIE [HDM51], the “ratio of IC50” value in assay [8] was found to be 20.9 ratio; in assay [3], 30.9 ratio.
As to KPFQLEAVFEANQNT [HDM21], the “ratio of IC50” value was 92 ratio in assay [5], 11.2 ratio in [6] and 11.7 ratio in assay [3].
On to IDLRQMRTVTPIR [HDM01], for which the “ratio of IC50” value in [8] amounted to 16 ratio; in assay [9], 19.2 ratio.
As for ETFDPMKVPDHSDK [HDM29A], the binding result in assay [14], in assay [15], in [16], in [17], in [18] and in assay [19] was “no binding” each time. Besides, the binding result in [20] and in assay [21] was “no binding” throughout.
